Entries after “also recorded” stand apart in the source; their conditions may differ.
T1: human M2 muscarinic receptor (Homo sapiens, UniProt P08172, DEL233-374/N2D/N3D/N6D/N9D)
T1 construct: FLAG (N); 8xHis (C); made in house; host or cells: Sf9 insect cells, BestBac baculovirus system
T1 sequence (P08172 with tags, fused parts or gaps N2D/N3D/N6D/N9D/DEL233-374): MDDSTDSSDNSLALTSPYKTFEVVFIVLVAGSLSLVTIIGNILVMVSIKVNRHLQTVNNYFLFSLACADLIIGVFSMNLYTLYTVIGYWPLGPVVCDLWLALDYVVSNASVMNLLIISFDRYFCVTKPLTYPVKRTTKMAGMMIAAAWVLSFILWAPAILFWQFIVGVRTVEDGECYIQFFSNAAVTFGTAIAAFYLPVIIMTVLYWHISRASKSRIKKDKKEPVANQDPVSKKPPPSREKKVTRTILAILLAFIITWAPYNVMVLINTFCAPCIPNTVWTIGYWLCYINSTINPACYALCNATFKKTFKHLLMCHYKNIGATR


Biological target: T1, human M2 muscarinic receptor
Experiment: M2 receptor radioligand binding assay (3H N-methyl scopolamine, receptor reconstituted into HDL particles)
Details: for enhancement of M2 receptor affinity for the agonist iperoxo: competition binding assay, iperoxo vs 3H N-methyl scopolamine, compared with G protein Gi
Excerpt: M2 muscarinic receptor expression and purification. The human M2 muscarinic receptor gene was modified to remove glycosylation sites, and to add an amino-terminal FLAG tag and a carboxy-terminal 8×His tag. In addition, residues 233-374 of intracellular loop 3 were deleted. […] Human M2 muscarinic receptor bearing an amino-terminal FLAG epitope tag and carboxy-terminal 8×His tag was expressed in Sf9 cells using the BestBac baculovirus system (Expression Systems; Davis, Calif.). Cells were infected at a density of 4×10^6 cells/mL, then incubated for two days at 27° C. Receptor was extracted and purified in the manner described previously for the M3 muscarinic receptor (Kruse et al., 2012). Briefly, receptor was first purified by Ni-NTA chromatography, FLAG affinity chromatography, then size exclusion chromatography. 1 μM atropine was included in all buffers. Receptor was then labeled with a 5-fold molar excess of biotin-NHS ester (Sigma-Aldrich; St. Louis, Mo.) in buffer containing 25 mM HEPES pH 7.2. Following a 30 minute incubation at room temperature and a 30 minute incubation on ice, unreacted label was quenched with 50 mM Tris pH 8. Directly labeled samples with fluorophore-NHS esters were prepared similarly. Receptor was then desalted into buffer containing either 10 μM tiotropium, 10 μM iperoxo, or buffer containing no ligand. Receptor eluted in buffer containing no ligand was treated with 50 μM iperoxo mustard (derivative of iperoxo that allows covalent binding to M2 receptor) for 20 minutes at room temperature. Samples were then concentrated, aliquoted, and flash frozen with 20% (v/v) glycerol.
M2 receptor radioligand binding assays. M2 receptor was expressed and purified, as described above. Receptor was then reconstituted into HDL particles consisting of apolipoprotein A1 and a 3:2 (mol:mol) mixture of the lipids POPC:POPG (1-palmitoyl-2-oleoyl-sn-glycero-3-phosphocholine: 1-palmitoyl-2-oleoyl-sn-glycero-3-phosphocholine and 1-hexadecanoyl-2-(9Z-octadecenoyl)-sn-glycero-3-phospho-(r-rac-glycerol), respectively, Avanti Polar Lipids). Binding reactions contained 50 fmol functional receptor, 0.6 nM 3H N-methyl scopolamine (NMS), 100 mM NaCl, 20 mM HEPES pH 7.5, 0.1% BSA, and ligands and nanobodies as indicated. Single point allosteric effects of nanobodies were measured in the presence of 10 nM iperoxo. Concentration-dependent effects of nanobodies were measured in the presence of 10 nM iperoxo. All reactions were 500 μL in volume. Reactions were mixed and then incubated for two hours. Samples were then filtered on a 48-well harvester (Brandel) onto a filter which had been pretreated with 0.1% polyethylenimine. All measurements were taken by liquid scintillation counting, and experiments were performed at least in triplicate.
To determine whether the Nanobody variants that specifically stain agonist-bound M2 receptor are able to stabilize the M2 receptor active state, a binding assay was performed. Due to the allosteric properties of GPCRs, molecules that stabilize the active conformation of a receptor also increase agonist affinity. Several conformationally specific binders were isolated and were tested for their ability to induce an increase in the affinity of the non-covalent agonist iperoxo.

Molecule | enhancement of M2 receptor affinity for the agonist iperoxo | EC50 (concentration-dependent effect of nanobody in the presence of 10 nM iperoxo, 0.6 nM 3H N-methyl scopolamine, read-out: EC50 of nanobody effect on agonist ability to displace a radioactive probe) [nM] | dose-dependent effect on agonist ability to displace a radioactive probe (in the presence of 10 nM iperoxo, 3H N-methyl scopolamine) | effect on binding of the radioligand N-methylscopolamine (allosteric binding properties) (single point, with and without agonist (10 nM iperoxo))
Nb9-20: Nanobody SEQ ID NO:11; M2 Gi mimetic (protein, listed as Lama glama) VHH: QVQLQESGGGLVQPEGSLTLACDTSGFTMNYYAIAWFRQAPEKEREGLATISSIDGRTYYADSVKGRFTISRDSAKNMVYLQMNNLRPEDTAVYYCSAGPDYSDYGDESEYWGQGTQVTVSS | confirmed to enhance agonist affinity | – | – | –
Nb9-8: Nanobody SEQ ID NO:1; M2 Gi mimetic, active-state stabilizing, binds intracellular surface of M2 receptor (protein, listed as Lama glama) VHH: QVQLQESGGGLVQAGDSLRLSCAASGFDFDNFDDYAIGWFRQAPGQEREGVSCIDPSDGSTIYADSAKGRFTISSDNAENTVYLQMNSLKPEDTAVYVCSAWTLFHSDEYWGQGTQVTVSS | confirmed to enhance agonist affinity; also recorded: enhanced the affinity of the M2 receptor for iperoxo to almost the same extent as that observed in the presence of the heterotrimeric G protein Gi; also recorded: substantial enhancement of iperoxo affinity | ~100 | dose-dependent effect | –
Nb9-1: Nanobody SEQ ID NO:2; M2 Gi mimetic (protein, listed as Lama glama) VHH: QVQLQESGGGLVQAGGSLRLSCAASGHTFSSARMYWVRQAPGKEREFVAAISRSGFTYSADSVKGRFTISRDIANNTVYLQMNSLQPEDTAIYTCYAAYLDEFYNDYTHYWGLGTQVTVSS | confirmed to enhance agonist affinity | – | – | –
clone B4: Nanobody SEQ ID NO:16; functional extracellular M2 nanobody ligand (protein, listed as Lama glama) VHH: QVQLQESGGGLVQAGGSLRLSCAASGRTFSNYAMSWFRQAPGKERGLVATIYRSGEGTYYLPSAKGRFTVSRDNAKNTAYLQMNSLKAEDTAVYYCAVMSRGTWSMWGQGTQVTVSS | – | – | – | decrease in the binding of the radioligand N-methylscopolamine only in the presence of agonist
